{"source": "the nanobody polyreactivity screen of Harvey et al. (2022)", "data": [{"test": "yeast display, Sf9 membrane polyspecificity reagent, FACS + sequencing; frameworks hold sequencing errors", "procedure,_shortened": "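Genes from sorted yeast were amplified by colony PCR, read by MiSeq 2 × 250 sequencing and filtered on CDR length. These cells carried a synthetic nanobody library in Saccharomyces cerevisiae BJ5465 and were sorted by FACS into low and high (top ~1%) gates on anti-HA and streptavidin fluorescence. Polyreactivity is labelled according to the gate of origin.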", "values": [{"sequence": "QVQLVESGGGLVQAGGSLRLSCAASGSIFSPYAMGWYRQAPGKERELVAAIRWGGGCTYADSVKGRFTISRDNAKNTVYLQMNSVIPEDSAVYYCAARRRSLRGYDYWGQGTQVTVSS", "polyreactivity (PSR sort gate)": "high polyreactivity"}, {"sequence": "QVQLVESGGGLVQAGGSLRLSCAASGSIFDYNAMGWYRQAPGKVRELVAAITGSGGSTYYADSVKGRFTISRDNAKNTVYLQMNSLTAEDTAVYYCAAPVDYRRYEYEYWGQGTQVTVSS", "polyreactivity (PSR sort gate)": "low polyreactivity"}, {"sequence": "QVQLVESGGGLVQAGGSLRLSCAASGSIFRRNSMGWYRPAPGKERELVAAISSIGSSTYYADSVKGRFTISRDNAKNTVYLQMNSLKPEDTAVYYCAALYVQGSHTYGYWGQGTQVTVSS", "polyreactivity (PSR sort gate)": "high polyreactivity"}, {"sequence": "QVQLVESGGGLVQAGGSLRLSCSASGSTFHYNAMGWYRQAQGKERELVAYISWRGASKYDADSVKGRFTISRDNAKNTVYLQMSSMKTEDTAVFFFNAVLTSYWYNSYKSRGDYWGQGTLVTVSS", "polyreactivity (PSR sort gate)": "high polyreactivity"}, {"sequence": "QVQLVESGGGLVQAGGSLRLSCAASGFIFGINAMGWYRQEPGKERELFAAISKRTGSTYYADSVKGRFTISRDNAKNTVYLQMNSLKPEDTAFYYCNVVRYNGLDKYEYWGQGTQVTVSS", "polyreactivity (PSR sort gate)": "high polyreactivity"}, {"sequence": "QVQLVESGGGLVQAGGSLRLSCAASGSTFVKYAMGWYRQAPGKERELVATITYSSGSTSYADSVKGRFTISRDNAKNTVYLQMNSLKPEDTAVYYCAKKDYTGYGYWGQGTQVTVSS", "polyreactivity (PSR sort gate)": "low polyreactivity"}, {"sequence": "QVQLVESGGGLVQAGGSLRLSCAASGSTFPKYAMGWYRQAPGKERELVAVITSGGSTYYADSVMGRFTISRDNAKNTVYLQMNSLKPEDTAVYYCAARKYRRFDYWGQGTQVTVSS", "polyreactivity (PSR sort gate)": "high polyreactivity"}, {"sequence": "QVQLVESGGGLVQAGGSLRLSCAASGITLAGYVMGWYRQAPGKERELVADISSSGDSTYYADSVKGRFTISRDNAKNTVYLQMISLKPEDTAVYYWAAEEIIPLIYKGYPFDYWGQGTQVTVSS", "polyreactivity (PSR sort gate)": "low polyreactivity"}, {"sequence": "QVQLVESGGGLVQAGGSHRLSCAASGIIIRYYAMGWYRQAPGKERDLVAAISGGGSTYYADSVKGRFTISRDNAKNTVYLQMNRLKPEDTAVYYCAAAGRWYYHGYNYWGQGTQVTVSS", "polyreactivity (PSR sort gate)": "high polyreactivity"}, {"sequence": "QVQLVESGGGLVQAGGSHRLSCAASGYIFQWNAMGWYRQAPGKERELVATISRRGGSTYYADSVKGRFTISRDNAKNTVYLQMNSLKPEDTAVYYCNAVFGSYKDYGYWGQGTQVTVSS", "polyreactivity (PSR sort gate)": "low polyreactivity"}, {"sequence": "QVQLVESGGGLVQAGGSLRLSCAASGSTFPHYTMGWYRQAPGKERELVAVISRSGRTYYADSVKGRFTISRDNAKNTVYLQMNSLKPEDTAVYYCAVLVGRLVWSYNHWGQGTQVTVSS", "polyreactivity (PSR sort gate)": "high polyreactivity"}, {"sequence": "QVQHVESGGGLVQAGGSLRLSCAASGSTFSYKVMGWYRQAPGKERELVAAISQSGGSTYYADSVKGRFTISRDNAKNTVYLHMNSLKPEDTAVYYCAAERRYYYGWGSFDYWGQGTQVTVSS", "polyreactivity (PSR sort gate)": "low polyreactivity"}, {"sequence": "QVQLVESGGGLVQAGGSLRLSCAASGLTIYHYSMGCYRQAPGKERELGAAISGNGVSTYYADSVKGRFTISRDNAKNTVYLQMNSLNPEDTAVYYCNVVFRFNSFDFYYWGLGTQVTVSS", "polyreactivity (PSR sort gate)": "high polyreactivity"}, {"sequence": "QVQLVESVGGLVQAGGSLRLSCAASGSTFAGNAMGWSRQAPGKERELVAAIDSSTGSTYYADSVKGRFTISRDNAKNTVYLQMNSLKPEDTSVYYSNKTSFLVKLDYWGHGTQVTVSS", "polyreactivity (PSR sort gate)": "low polyreactivity"}, {"sequence": "QVQLVESGGGLVQAGGSLRLSCAASGSTFYSNSMGWYRQAPGKERELVAAIDWGGGSTYYADSVKGRFTISRDNETNTVYLQMNSLKPEDTAVYYCAKKYYKVHKFDYWGQGNQVTVSS", "polyreactivity (PSR sort gate)": "low polyreactivity"}, {"sequence": "QVQLVESGGGLVQAGGSLRLSCAASGGIFPFYAMGWYRQAPGKERELVAAISSGGSTYYADSVKGRFTISRDNAKNTVYLQMNSLKPEDTAVYYCAKRISTRRYDYWGQGTQVTVSS", "polyreactivity (PSR sort gate)": "low polyreactivity"}, {"sequence": "QVQLVESGGGLVQAGGILRLSCAASGSTLRTNAMGWYRQEPGKDRELVAAISTRGSSTYYADSVKGRFTISRDNAKNTVYLQMNSLQPEDTAVYYCNTAWGPRRGVNVAFDYWGQGTHVTVSS", "polyreactivity (PSR sort gate)": "low polyreactivity"}, {"sequence": "QVQLVESGGGLVQSGGSLRLSCAASGITFDHYAMGWYRQAPGKERELVAAISVSGGRTYYADSVKGRFTISRDNAKNTVYLQMNSLKPEDTAVYYCAKVSQVRGFYYWGQGTQVTVSS", "polyreactivity (PSR sort gate)": "high polyreactivity"}, {"sequence": "QVQLVESGGGLVQAGGSLRLSCAASGRIFNYYAMGWYRQAPGKEREFVAAITRSGGRTYYADSVKGRFTISRDNAKNTVYLQMNSLKPEDPAVYYCAAGRYVWREYYYWGQGTQVTVSS", "polyreactivity (PSR sort gate)": "high polyreactivity"}, {"sequence": "QVQLVESGGCLVQAGGSLRLSCAASGSIFVYYAMGWYRQSPGKERELVAAISWSGGSTRYADSVKGRFTISRDNAKNTVYLQMNSLKPEDTAVYYCAAKRLGGGYWGQGTQVTVSS", "polyreactivity (PSR sort gate)": "high polyreactivity"}, {"sequence": "QVQLVESGGGLVQAGGSLRLSCAASGITFRHYDMGWYRQAPGKERELVAAITSRGGSTYYADSVKGRFTISRDNAKNTVYLQMNSLKPQDTAVYYCNKRLYYQRWPAAAREYWGQGTQVTVSS", "polyreactivity (PSR sort gate)": "high polyreactivity"}, {"sequence": "QVQLVESGGGLVQAGGSLRLSCAASGFTFYRYAMGWYRQAPGKERELVAAISRSGGSTSYADSVKGRFTISRDNAKNTLYLQMNSLTPEDTEVYYCATRNWYSLKDYYYWGQGTQVTVSS", "polyreactivity (PSR sort gate)": "high polyreactivity"}, {"sequence": "QVQLVESGGGLVQSGGSLRLSCAASGRIFDYNAMGWYRQAPGKERELVAAINSGGSTYADSVKGRFTISRDNAKNTVYLQMNSLKPEDTAVYYCNATPQFATFTYDYCGQGTQVTVSS", "polyreactivity (PSR sort gate)": "low polyreactivity"}, {"sequence": "QVQLVESGGGLVQAGGSLRLSCAASGGTFYRNAMGWYRQAPGKERELVAAITKRGGSTYYADSVKGRFTISRDNAKNTVYIQINSLKPEDTAVYYCAKDAAPIPGNDSDYWGQGTQVTVSS", "polyreactivity (PSR sort gate)": "high polyreactivity"}, {"sequence": "QVHLVESGGGLVQAGGSLRLSCAASGITFYGNTMGWYRQTPGKERELVARISSGGSTNYAESVKGRFTISRVNAKNTVYLQMNSLKPEDTAVSYCAVKQYGFIWSGYGYDYWGQGSQVTVSS", "polyreactivity (PSR sort gate)": "high polyreactivity"}, {"sequence": "QVQLVESGGGLVQAGGSLRLSCAASGSIFDIYAMAWYRQAPGKERELVARIRGSGGRTYYADSVKGRFTISRDNAKNTVYLQMNSLKPEDTAVYYCNAGVRAVNRKYDYWGQGTQVTVSS", "polyreactivity (PSR sort gate)": "high polyreactivity"}, {"sequence": "QVQLVESGGGLVQAGGSLRLSCAATGRTFYVYAMGWYRQAPGKERELVADITWSGGSTYADSVKGRFTISRDNAKNTVYLQMNSLKPEDTAVYYCAAEWQTWYGVEYDYWGQGTQVTVSS", "polyreactivity (PSR sort gate)": "high polyreactivity"}, {"sequence": "QVQLVESGGGLVQAGGSLRLSCAASGRIFASYGMGWYRQAPGKETELVATINSSGGSTYYADSVKGRFTISRDNAKNTVYLQLKSLKPEDTAVYYSNARHGYYKYGYWGQGTQVTVSS", "polyreactivity (PSR sort gate)": "low polyreactivity"}, {"sequence": "QVQLVESGGGLVQAGGSLRLSCAASGSTLYTYAMGWYRQAPGKERELVATISWSGSSTYYADSVKGRFTISRDNAKNTVYLQMNSLKPEDTAVYDCAAPYHYWYRLDYWGQGTQVTVSA", "polyreactivity (PSR sort gate)": "high polyreactivity"}, {"sequence": "QVQLVESGGGLVQAGGSIRLSCAASGSIFRPYVMGWSRPAPGKERELVAAISSRGGDTYYADYVKGRFTISRDYAKNTVNVQMISLKPEDTAVYYCNARYYTSYDYWGQGSQVTVSS", "polyreactivity (PSR sort gate)": "low polyreactivity"}, {"sequence": "QVQLVESGGGLVQAGGSLRLSCAASGNIFGVYTMGWYRQAPGKERELVAVITSGGRTYYADSVKGRFTISRDNAKNTVYLQMNSLKPADTAVYYCAADIRYTREEYWGQGPQVTVSS", "polyreactivity (PSR sort gate)": "high polyreactivity"}, {"sequence": "QVQLVESGGGLVQARGSLRLSCAACGSTFYWYPLGWSRQAPGTERELVATLTSVGRTNYADSVKGRFTISRDNAKNSVYLQMNRLNPEDTAVYYCAASKARWPRGGSRGGMGYWGQGTQVTVSS", "polyreactivity (PSR sort gate)": "high polyreactivity"}, {"sequence": "QVQLVESGGGLVQEGGSLRLSCAASGIIFLWYTMGWYRQAPGKERELVATISWAGGSTYADSVKGRFTISRDNAKNTVYLPMNSLKPEDTAVYYCNTEIYVDIISDYGYWGQGTQVTVSS", "polyreactivity (PSR sort gate)": "low polyreactivity"}, {"sequence": "QVQLVESGGGLVQAGGSLRLSCAASGFIFDAYAMGWYRPAPGKEREFVAGISIGGRTNYADSVKGRFTISRDNAKNTVYLQMNSLKPEDSAVYYCAARNYRYYYGSYFRGPITNYEYWGQGTQVTVSS", "polyreactivity (PSR sort gate)": "low polyreactivity"}, {"sequence": "QVQLVESGGGLVKAGGSLRLSCAASGSISAGNAMGWNIHAPGKERELVAAISGSGGSTFYADSVKGRFTISRYNAKNSVYLQINSLKPEDTAVYYCAARGGYRLRYIPYVRYDYWGQGTQVTVSS", "polyreactivity (PSR sort gate)": "high polyreactivity"}, {"sequence": "QVQLVESGGGLVQAGGSLRLSSAASGSIFFEYAMRWSRQAPGNEREWVASINRGGGSTYYADSVKGRFTISRDNAKNTVYLQMNSLKPEDTAVYYCAAQWKYRQSYLDYYWGQGTQVTVSS", "polyreactivity (PSR sort gate)": "low polyreactivity"}, {"sequence": "QVQLVESGGGLVQAGGSLRLSCSASGSIFAYYAMGWYRQAPGKERELVAAISKSAGSTYYADSVKGRFTISRDNAKNTVYLQMNSLKPEDTAVYYCAAVVLGRRLGFRGDYNYWGQGTQVTVSS", "polyreactivity (PSR sort gate)": "high polyreactivity"}, {"sequence": "QVQLVQSGGGLVQAGGSLRLSCAASGRIFGSYAMGWSRQAPGKERELGAAISYSGGSTYYADSVKGRFTMSRDNAKNTVYLQMHSLKPEDTAVYYCNVDRYYGYFSVRGGYWGQGTQGTVSS", "polyreactivity (PSR sort gate)": "low polyreactivity"}, {"sequence": "QVHLVESGGGLVQARGSLRLSCAASGSTIYSYARGWYRQAPGKERELVAAINRSAGSTYYADSVKGRFTISRDNAKNTVYLQMTSLKPEDTAVYYCAAYASRSYGDWGQGTQVTVSS", "polyreactivity (PSR sort gate)": "high polyreactivity"}, {"sequence": "QVQLVESGGGLVQAGGSLRLICAASGFIFSTYAMGWYRQAPGKERELVAAISWSGGRTNYADSVKGRFTISRDNAKNTVYLQMNSLKPEDTAVYYCARYGHSGRQYKYDYWGQGTQVTVSS", "polyreactivity (PSR sort gate)": "high polyreactivity"}, {"sequence": "QVQVVESGGGLVQAGCSLRLSCAASGFTFRDYAMGWYRPAPGKERELVATITLRVGSTFYADSLKGRFTISRDNAKNTVYLQKNSLKPEDTAVYYCADEDSNVVAYDYWGQGTQVTVSS", "polyreactivity (PSR sort gate)": "low polyreactivity"}, {"sequence": "QVQLVESGGGLVQAGGSLRLSCAASGSTFRRYARGWYRQAPGKERELVAAISTRGGSTYYADSVKGRFTISRDNAKNTVYLQMNSLKPEDTAVYYCAADEPKYTSSSSRRYGYWGQGTQVTVSS", "polyreactivity (PSR sort gate)": "high polyreactivity"}, {"sequence": "QVQLVESGGGLVQAGGSLRLSCAASGYIFLPYAMGWYRQARGKEREVVAAIRWSGGSTYYADSVKGRFTISRDNAKNTVYLQMNSLKPEDTAVYYCAAYYVARDRRYPKAYSYEYWGQGTQVTVLS", "polyreactivity (PSR sort gate)": "high polyreactivity"}]}]}
